Test results as given in patent publication US20050101769A1 (VLAAMS INTERUNIVERSITAIR INSTITUUT VOOR BIOTECHNOLOGIE VZW, published 2005).

B1: cytoplasmic region of TNF-RII (receptor, UniProt P20333 288-461, looked up)
chain: KKKPLCLQREAKVPHLPADKARGTQGPEQQHLLITAPSSSSSSLESSASALDRRAPTRNQPQAPGVEASGAGEARASTGSSDSSPGGHGTQVNVTCIVNVCSSSDHSSQCSSQASSTMGDTDSSPSESPKDEQVPFSKEECAFRSQLETPETLLGSTEEKPLPLGVPDAGMKPS
notes: domain: cytoplasmic region
B2: 4F2, TTRAP deletion mutant, amino acids 54 to 362 (other)
chain: MERALNSYFEPPVEESALERRPETISEPKTYVDLTNEETTDSTTSKISPSEDTQQENGSMFSLITWNIDGLDLNNLSERARGVCSYLALYSPDVIFLQEVIPPYYSYLKKRSSNYEIITGHEEGYFTAIMLKKSRVKLKSQEIIPFPSTKMMRNLLCVHVNVSGNELCLMTSHLESTRGHAAERMNQLKMVLKKMQEAPESATVIFAGDTNLRDREVTRCGGLPNNIVDVWEFLGKPKHCQYTWDTQMNSNLGITAACKLRFDRIFFRAAAEEGHIIPRSLDLLGLEKLDCGRFPSDHWGLLCNLDIIL
notes: also called longest TTRAP fragment (aa 54-362); TTRAP/4F2
B3: TTRAP (TRAF and TNF receptor associated protein), full-length human (other)
chain: MELGSCLEGGREAAEEEGEPEVKKRRLLCVEFASVASCDAAVAQCFLAENDWEMERALNSYFEPPVEESALERRPETISEPKTYVDLTNEETTDSTTSKISPSEDTQQENGSMFSLITWNIDGLDLNNLSERARGVCSYLALYSPDVIFLQEVIPPYYSYLKKRSSNYEIITGHEEGYFTAIMLKKSRVKLKSQEIIPFPSTKMMRNLLCVHVNVSGNELCLMTSHLESTRGHAAERMNQLKMVLKKMQEAPESATVIFAGDTNLRDREVTRCGGLPNNIVDVWEFLGKPKHCQYTWDTQMNSNLGITAACKLRFDRIFFRAAAEEGHIIPRSLDLLGLEKLDCGRFPSDHWGLLCNLDIIL
notes: Protein of 362 amino acids; In the yeast two-hybrid assays it is a fusion expressed from the prey plasmid (pJG45); also called CD40 receptor associated protein
B8: 4F2d3, TTRAP deletion mutant, amino acids 54 to 273 (other)
chain: MERALNSYFEPPVEESALERRPETISEPKTYVDLTNEETTDSTTSKISPSEDTQQENGSMFSLITWNIDGLDLNNLSERARGVCSYLALYSPDVIFLQEVIPPYYSYLKKRSSNYEIITGHEEGYFTAIMLKKSRVKLKSQEIIPFPSTKMMRNLLCVHVNVSGNELCLMTSHLESTRGHAAERMNQLKMVLKKMQEAPESATVIFAGDTNLRDREVTRC
notes: Yeast two-hybrid fusion
B9: 4F2d2, TTRAP deletion mutant, amino acids 54 to 236 (other)
chain: MERALNSYFEPPVEESALERRPETISEPKTYVDLTNEETTDSTTSKISPSEDTQQENGSMFSLITWNIDGLDLNNLSERARGVCSYLALYSPDVIFLQEVIPPYYSYLKKRSSNYEIITGHEEGYFTAIMLKKSRVKLKSQEIIPFPSTKMMRNLLCVHVNVSGNELCLMTSHLESTRGHAAE
notes: Yeast two-hybrid fusion

What was measured:
[1] = biological target: B2; test: yeast two-hybrid, colour formation on X-gal (column = prey, row = bait)
Protocol: (§1) The potential binding of TTRAP to other proteins was assessed using a yeast two-hybrid assay. The experimental outline is similar to the one described for the two-hybrid screening. However, here the plasmids for bait, prey and lacZ reporter were transformed simultaneously into the EGY48 yeast strain. Positive interaction was determined either by the growth phenotype (growth on medium lacking leucine in the presence of galactose, and not in the presence of glucose) or by the blue/white staining on X-gal containing plates (blue colonies only on galactose containing plates, not on glucose containing plates). cDNA's for TRAF2 and for the cytoplasmic regions of CD30, CD40 and TNF-RII were generated by PCR using the pfu polymerase (Promega). PCR fragments encoding RIP, TRADD and FADD were cloned in pCDNA3 (Invitrogen, Carlsbad, Calif.). cDNA of TRAF3 was obtained from the laboratory of Dixit, Dept Pathol., Univ. Michigan Med. School, MI, USA. The color formation was evaluated as strong and fast (++), strong but slow (+), weak and slow (±), none (−) or not determined (nd).

[2] = biological target: B3; test: as above
Protocol: as §1

[3] = biological target: B9; test: yeast two-hybrid, colour formation on X-gal; '-' = none
Protocol: as §1

[4] = biological target: B8; test: as above
Protocol: as §1

[5] = biological target: the molecule itself; test: yeast two-hybrid, colour formation on X-gal (column = prey, row = bait)
Protocol: as §1

[6] = biological target: the molecule itself; test: yeast two-hybrid (in Table I: TTRAP prey with 4F2 bait)
[7] = biological target: B2; test: yeast two-hybrid, colour formation on X-gal; '-' = none
Protocol: as §1

[8] = biological target: B1; test: as above
Protocol: as §1

[9] = biological target: B3; test: as above
Protocol: as §1

B1: binds [1]; binds [2]; no binding [3]. B1: no binding [4].

B2: binds [5]; binds [2].

B3: binds [6].

B4: cytoplasmic region of CD30 (receptor, UniProt P28908 407-595, looked up)
chain: CHRRACRKRIRQKLHLCYPVQTSQPKLELVDSRPRRSSTQLRSGASVTEPVAEERGLMSQPLMETCHSVGAAYLESLPLQDASPAGGPSSPRDLPEPRVSTEHTNNKIEKIYIMKADTVIVGTVKAELPEGRGLAGPAEPELEEELEADHTPHYPEQETEPPLGSCSDVMLSVEEEGKEDPLPTAASGK
notes: domain: cytoplasmic region
B4: binds [1]; binds [2].

B5: 4F2d1, TTRAP deletion mutant, amino acids 54 to 140 (other)
chain: MERALNSYFEPPVEESALERRPETISEPKTYVDLTNEETTDSTTSKISPSEDTQQENGSMFSLITWNIDGLDLNNLSERARGVCSYL
notes: Yeast two-hybrid fusion
B5: no binding [7]; no binding [8].

B6: LMP-1 (other)
chain: YYHGQRHSDEHHHDDSLPHPQQATDDSGHESDSNSNEGRHHLLVSGAGDGPPLCSQNLGAPGGGPDNGPQDPDNTDDNGPQDPDNTDDNGPHDPLPQDPDNTDDNGPQDPDNTDDNGPHDPLPHSPSDSAGNDGGPPQLTEEVENKGGDQGPPLMTDGGGGHSHDSGHGGGDPHLPTLLLGSSGSGGDDDDPHGPVQLSYYD
B6: no binding [7]; no binding [9].

B7: FADD (other, UniProt Q13158 1-208, looked up)
chain: MDPFLVLLHSVSSSLSSSELTELKFLCLGRVGKRKLERVQSGLDLFSMLLEQNDLEPGHTELLRELLASLRRHDLLRRVDDFEAGAAAGAAPGEEDLCAAFNVICDNVGKDWRRLARQLKVSDTKIDSIEDRYPRNLTERVRESLRIWKNTEKENATVAHLVGALRSCQMNLVADLVQEVQQARDLQNRSGAMSPMSWNSDASTSEAS
B7: no binding [9].

B8: no binding [7].

B9: no binding [7].
